The record followed here is US20120045393A1 (priority 2009, published 2012).

The term EC50 denotes the midpoint of the concentration-response curve.

B1: BRU-2437 (peptide)
peptide: XHWSHXWYPX
HELM: PEPTIDE1{[Glp].H.W.S.H.[dK].W.Y.P.[O=C(NN[*:1])[*:2]].[am]}$$$$V2.0
SMILES: NCCCC[C@@H](NC(=O)[C@H](Cc1c[nH]cn1)NC(=O)[C@H](CO)NC(=O)[C@H](Cc1c[nH]c2ccccc12)NC(=O)[C@H](Cc1c[nH]cn1)NC(=O)[C@@H]1CCC(=O)N1)C(=O)N[C@@H](Cc1c[nH]c2ccccc12)C(=O)N[C@@H](Cc1ccc(O)cc1)C(=O)N1CCC[C@H]1C(=O)NNC(N)=O
B2: BRU-3022 (peptide)
peptide: XRWSHXWXP
modifications: not fully specified; DO3A10CM on N-terminus; AA1 Dnal2 (Table 6; Sar in paragraph 138); AA6 Darg; AA8 Bpa4; AA10 Az23po-Da15o3pt
B3: BRU-2989 (peptide)
peptide: XRWSHXWXPG
modifications: DO3A10CM on N-terminus; AA1 Dnal2; AA6 Darg; AA8 Bpa4; C-terminal Gly-Az23(py2)2po-Ap
B4: BRU-2970 (peptide)
peptide: XRWSHXWXP
modifications: DO3A10CM on N-terminus; AA1 Dnal2; AA6 Darg; AA8 Bpa4; AA10 Aeh2 (aminoethanol; printed Ach2 in paragraph 138)
B5: BRU-3019 (peptide)
peptide: XRWSHXWXP
modifications: not fully specified; DO3A10CM on N-terminus; AA1 Dnal2 (Table 6; Sar in paragraph 138); AA6 Darg; AA8 Bpa4; AA10 Az23po-Dabt14

Non-standard residues stand in square brackets, D forms with d. Residues, ends and D or L forms follow the SMILES beside them. Primed or numbered codes have the meaning given here. *: point of attachment. DO3A10CM(3) = metal chelator group attached at the N-terminus (X in table rows); DO3A10CM″ = chelating group at the N-terminus (X in the sequence tables); DOTA = O=C(O)CN1CCN(CC(=O)O)CCN(CC(=O)*)CCN(CC(=O)O)CC1; Bpa = N[C@@H](Cc1ccc(C(=O)c2ccccc2)cc1)C(=O)O; d2Nal = N[C@H](Cc1ccc2ccccc2c1)C(=O)O; d3Pal = N[C@H](Cc1cccnc1)C(=O)O; DO3A10CM = not defined here; Nicotinoyl = O=C(c1cccnc1)*; Chmgly = not defined here; Apgly = not defined here; Bugly = not defined here; Cegly = not defined here; Etgly = not defined here; Hegly = not defined here; Iegly = not defined here; Ipgly = not defined here; Mpgly = not defined here; Prgly = not defined here; Tdgly = not defined here; Btd = not defined here; azaGly = NNC(=O)O; Sar = CNCC(=O)O

The first test deals with LHRH binding sites on human ovarian cancer cells (EFO-27).
Test: not given
Conditions: not given
The molecule `CN(NC(=O)[C@@H]1CCCN1C(=O)[C@H](Cc1ccc(C(=O)c2ccccc2)cc1)NC(=O)[C@H](Cc1c[nH]c2ccccc12)NC(=O)[C@@H](CCCNC(=N)N)NC(=O)[C@H](Cc1c[nH]cn1)NC(=O)[C@H](CO)NC(=O)[C@H](Cc1c[nH]c2ccccc12)NC(=O)[C@H](CCCNC(=N)N)NC(=O)[C@@H](Cc1ccc2ccccc2c1)NC(=O)CN1CCN(CC(=O)O)CCN(CC(=O)O)CCN(CC(=O)O)CC1)C(N)=O` [compound 3021] showed an EC50 of 500 nM. Still for that read-out and setting: for `CN(CC(=O)N[C@@H](Cc1c[nH]cn1)C(=O)N[C@@H](Cc1c[nH]c2ccccc12)C(=O)N[C@@H](CO)C(=O)N[C@@H](Cc1c[nH]cn1)C(=O)N[C@H](CCCNC(=N)N)C(=O)N[C@@H](Cc1c[nH]c2ccccc12)C(=O)N[C@@H](Cc1ccc(CN)cc1)C(=O)N1CCC[C@H]1C(=O)NNC(N)=O)C(=O)CN1CCN(CC(=O)O)CCN(CC(=O)O)CCN(CC(=O)O)CC1` [BRU-2760] the value was 3550 nM.

Still in this test, the particulars now being: EFO-27 cells, competition with [125I-Tyr8]BRU-2477, 90 min.
`N=C(N)NCCC[C@H](NC(=O)[C@@H](Cc1ccc2ccccc2c1)NC(=O)CN1CCN(CC(=O)O)CCN(CC(=O)O)CCN(CC(=O)O)CC1)C(=O)N[C@@H](Cc1c[nH]c2ccccc12)C(=O)N[C@@H](CO)C(=O)N[C@@H](Cc1c[nH]cn1)C(=O)N[C@H](CCCNC(=N)N)C(=O)N[C@@H](Cc1c[nH]c2ccccc12)C(=O)N[C@@H](Cc1ccc(C(=O)c2ccccc2)cc1)C(=O)N1CCC[C@H]1C(=O)NCC(N)=O` [compound 3005] yielded an EC50 of 660 nM. The same measure, in the same setting: in the case of `CN(CC(=O)N[C@@H](Cc1c[nH]cn1)C(=O)N[C@@H](Cc1c[nH]c2ccccc12)C(=O)N[C@@H](CO)C(=O)N[C@@H](Cc1c[nH]cn1)C(=O)N[C@H](CO)C(=O)N[C@@H](Cc1c[nH]c2ccccc12)C(=O)N[C@@H](Cc1ccc(C(=O)c2ccccc2)cc1)C(=O)N1CCC[C@H]1C(=O)NNC(N)=O)C(=O)CN1CCN(CC(=O)O)CCN(CC(=O)O)CCN(CC(=O)O)CC1` [compound 2761] ({DOTA}-[Sar]HWSH[dS]W[Bpa]P[azaGly]-NH2) it was 13600 nM.

Another test has as its target LHRH binding sites on EFO-27 human ovarian cancer cells (human). The test can be described thus: competition with [125I-Tyr8]BRU-2477 on EFO-27 cells.
Conditions: not given
In turn, {DO3A10CM(3)}-[Sar]HWSH[dA]W[Bpa]P[azaGly]-NH2 [BRU-2672] came in with an EC50 of 14000 nM. Same read-out and setting: in the case of XHWSHXWXPX (DO3A10CM on N-terminus; AA1 Mednal2; AA6 Darg; AA8 Bpa4; AA10 azaGly-NH2) [BRU-3003] it was 760 nM; in that of XHWSHXWXPX (DO3A10CM on N-terminus; AA1 Sar; AA6 Darg; AA8 Cha; AA10 azaGly-NH2) [BRU-2718], 630 nM; in that of {DO3A10CM(3)}-[Sar]HWSH[d3Pal]W[Bpa]P[azaGly]-NH2 [BRU-2673], 12300 nM. Still for that read-out and setting: in the case of B1 it was 8540 nM. Same read-out and setting: for B2 the value was 710 nM; for DO3A10CM-G[Etgly]HWSH[dR]W[Bpa]P[azaGly]-NH2 (reading uncertain) [BRU-2789], 5120 nM.

The molecule DO3A10CM-G[Iegly]HWSHRW[Bpa]P[azaGly]-NH2 (not fully specified (residue 7); reading uncertain; also: AA6 Darg prints R) [BRU-2879] registered an EC50 of 1030 nM.

DO3A10CM-G[Cegly]HWSHRW[Bpa]P[azaGly]-NH2 (not fully specified (residue 7); reading uncertain; also: AA6 Darg prints R) [BRU-2875] registered an EC50 of 8700 nM.

For DO3A10CM-[Sar]HWSH[dW]W[Bpa]P[azaGly]-NH2 (reading uncertain) [BRU-2731], the EC50 worked out at 1360 nM.

Turning to XRWSHXWXPG (DO3A10CM on N-terminus; AA1 Dnal2; AA6 Darg; AA8 Bpa4; C-terminal Gly-Aprp1h3) [BRU-2987], the EC50 is 2300 nM. On to XHWSHXWXPX (DO3A10CM on N-terminus; AA1 Sar; AA6 Dharg; AA8 Bpa4; AA10 azaGly-NH2) [BRU-2893], for which the EC50 came out at 2600 nM and the times lower binding than BRU-2443 is 2.7 times. B3 returned an EC50 of 1130 nM. The molecule XHWSHXWXPX (DO3A10CM on N-terminus; AA1 Sar; AA6 Dcit; AA8 Bpa4; AA10 azaGly-NH2) [BRU-2729] had an EC50 of 14200 nM and a times lower binding than BRU-2443 of 15 times. As for XRWSHXWXP (DO3A10CM on N-terminus; AA1 Dnal2; AA6 Darg; AA8 Bpa4; AA10 Aprp1h3) [BRU-2982], the EC50 came to 1130 nM. On the same count and under the same terms, for XRWSHXWXP (DO3A10CM on N-terminus; AA1 Dnal2; AA6 Darg; AA8 Bpa4; AA10 Ae (aminoethane)) [BRU-2981] the value was 970 nM. On the same count and under the same terms, in the case of XHWSHXWXPX (DO3A10CM on N-terminus; AA1 Sar; AA6 Darg; AA8 Lys(isp); AA10 azaGly-NH2) [BRU-2675] it was 12300 nM. The same measure, in the same setting: in the case of B4 it was 510 nM. As for DO3A10CM-[Sar]HWSH[Btd]W[Bpa]P[azaGly]-NH2 (reading uncertain) [BRU-3000], the EC50 is 4230 nM and the times lesser binding efficacy than BRU-2443 stood at 4.5 times.

In turn, DO3A10CM-G[Tdgly]HWSHRW[Bpa]P[azaGly]-NH2 (not fully specified (residue 7); reading uncertain; also: AA6 Darg prints R) [BRU-2878] showed an EC50 of 4480 nM.

DO3A10CM-G[Prgly]HWSH[dR]W[Bpa]P[azaGly]-NH2 (reading uncertain) [BRU-2794] displayed an EC50 of 1300 nM.

Regarding XRWSHXWXPX (DO3A10CM on N-terminus; AA1 Mednal2; AA6 Darg; AA8 Bpa4; AA10 azaGly-NH2) [BRU-2965], the EC50 is 580 nM and the fold reduction in binding potency against BRU-2813 turned out to be 2 fold. Consider {DO3A10CM″}-[Sar]HWSH[dS]W[Bpa]P[azaGly]-NH2 [BRU-2761], for which the EC50 came to 13600 nM.

Consider XHWSHXWXPX (DO3A10CM on N-terminus; AA1 Sar; AA6 Darg; AA8 Bip; AA10 azaGly-NH2) [BRU-2625], for which the EC50 was 2140 nM. Still for that read-out and setting: for XRWSHXWXPGX (DO3A10CM on N-terminus; AA1 Dnal2; AA6 Darg; AA8 Bpa4; AA10 Gly-NH2 (amide)) [BRU-3005] the value was 660 nM. {DO3A10CM″}-G[Mephe]HWSHRW[Bpa]P[azaGly]-NH2 (not fully specified (residue 7)) [BRU-2755] registered an EC50 of 1290 nM. Still for that read-out and setting: for DO3A10CM-G[Bugly]HWSH[dR]W[Bpa]P[azaGly]-NH2 (reading uncertain) [BRU-2791] the value was 4030 nM; for XHWSHXWXPX (DO3A10CM on N-terminus; AA1 Sar; AA6 Darg; AA8 Tbufe4; AA10 azaGly-NH2) [BRU-2634], 980 nM; for B5, 900 nM. Still for that read-out and setting: for DO3A10CM-G[Apgly]HWSHRW[Bpa]P[azaGly]-NH2 (not fully specified (residue 7); reading uncertain; also: AA6 Darg prints R) [BRU-2874] the value was 1970 nM. Molecule {DO3A10CM(3)}-[Sar]HWSH[dK](Nicotinoyl)WYP[azaGly]-NH2 [BRU-2674] had an EC50 of 22600 nM. The same measure, in the same setting: for DO3A10CM-G[Hegly]HWSHRW[Bpa]P[azaGly]-NH2 (reading uncertain; also: AA6 Darg prints R) [BRU-2873] the value was 1330 nM; for DO3A10CM-G[Mpgly]HWSH[dR]W[Bpa]P[azaGly]-NH2 (reading uncertain) [BRU-2793], 1340 nM. Still for that read-out and setting: for DO3A10CM-[d2Nal]RWSH[dR]W[Bpa]PGF-NH2 (reading uncertain) [BRU-2980] the value was 970 nM; for {DO3A10CM(3)}-[Sar]HWSH[dK](Nicotinoyl)W[Bpa]P[azaGly]-NH2 [BRU-2671], 7200 nM; for DO3A10CM-G[Ipgly]HWSH[dR]W[Bpa]P[azaGly]-NH2 (reading uncertain) [BRU-2790], 3300 nM. Turning to DO3A10CM-G[Chmgly]HWSHRW[Bpa]P[azaGly]-NH2 (not fully specified (residue 7); reading uncertain; also: AA6 Darg prints R) [BRU-2877], the EC50 was 900 nM.

DO3A10CM-G[Chgly]HWSHRW[Bpa]P[azaGly]-NH2 (reading uncertain; also: AA6 Darg prints R) [BRU-2872] registered an EC50 of 2900 nM.
